Measured values as given in PMC9385667, “Structural basis for proton coupled cystine transport by cystinosin” (Nature Communications, 2022).
Residue numbers refer to the chain shown, from its start. Names may count otherwise. Each block holds one molecule with its values, some of them ahead of it.

Tests used:
[1] = molecular target: T1, Arabidopsis thaliana cystinosin (plant cystinosin) (Arabidopsis thaliana, UniProt P57758); assay: pyranine proton-flux transport assay in proteoliposomes; assay type: biochemical; conditions: 500 μM substrate, pH 7.2, 25 °C, valinomycin / K+ gradient
T1 construct: gene At5g40670; codon-optimised gene expressed in Saccharomyces cerevisiae BJ5460 as cleavable C-terminal GFP-His fusion; tag cut with TEV protease; DDM-purified; reconstituted in POPE:POPG liposomes for transport
T1 sequence (P57758 1-270): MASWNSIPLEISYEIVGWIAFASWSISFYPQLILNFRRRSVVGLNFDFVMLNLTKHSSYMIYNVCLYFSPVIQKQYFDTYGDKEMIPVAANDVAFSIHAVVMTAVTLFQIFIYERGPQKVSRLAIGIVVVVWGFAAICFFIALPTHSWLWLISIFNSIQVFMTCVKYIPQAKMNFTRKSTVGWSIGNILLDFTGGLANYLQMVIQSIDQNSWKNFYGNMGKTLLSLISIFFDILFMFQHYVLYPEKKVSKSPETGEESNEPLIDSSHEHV

[2] = system: T2, N[C@@H](CSSC[C@H](N)C(=O)O)C(=O)O; assay: two-electrode voltage clamp in Xenopus laevis oocytes; assay type: cell-based, Homo sapiens; conditions: pH 5, -40 mV, ND-96, proton-coupled transport
T2 construct: no GFP; plasma membrane of Xenopus laevis oocytes

[3] = molecular target: T1, Arabidopsis thaliana cystinosin (plant cystinosin); assay: X-ray crystal structure, […] Å; conditions: complex with sybody Syb39; lipidic cubic phase; central binding site, inward-open state
[4] = molecular target: T3, Arabidopsis thaliana cystinosin (plant cystinosin) (Arabidopsis thaliana, UniProt P57758, P169G); assay: nanoDSF tryptophan fluorescence quench, DDM-purified protein; assay type: binding; conditions: 3.2 mM L-cystine, 10 μM protein, pH 7.2, 25 °C
T3 construct: gene At5g40670; codon-optimised gene expressed in Saccharomyces cerevisiae BJ5460 as cleavable C-terminal GFP-His fusion; tag cut with TEV protease; DDM-purified; reconstituted in POPE:POPG liposomes for transport
T3 sequence (P57758 1-270 P169G): T1 sequence (P57758 1-270) with P169G

[5] = molecular target: T4, Arabidopsis thaliana cystinosin (plant cystinosin) (Arabidopsis thaliana, UniProt P57758, S228A); assay: as above; assay type: binding; conditions: 3.2 mM L-cystine, 10 μM protein, pH 7.2, 25 °C
T4 construct: gene At5g40670; codon-optimised gene expressed in Saccharomyces cerevisiae BJ5460 as cleavable C-terminal GFP-His fusion; tag cut with TEV protease; DDM-purified; reconstituted in POPE:POPG liposomes for transport
T4 sequence (P57758 1-270 S228A): T1 sequence (P57758 1-270) with S228A

[6] = molecular target: T5, Arabidopsis thaliana cystinosin (plant cystinosin) (Arabidopsis thaliana, UniProt P57758, W24F); assay: as above; assay type: binding; conditions: 3.2 mM L-cystine, 10 μM protein, pH 7.2, 25 °C
T5 construct: gene At5g40670; codon-optimised gene expressed in Saccharomyces cerevisiae BJ5460 as cleavable C-terminal GFP-His fusion; tag cut with TEV protease; DDM-purified; reconstituted in POPE:POPG liposomes for transport
T5 sequence (P57758 1-270 W24F): T1 sequence (P57758 1-270) with W24F

[7] = molecular target: T6, Arabidopsis thaliana cystinosin (Arabidopsis thaliana, UniProt P57758 1-270); assay: BLI
T6 chain: T1 sequence (P57758 1-270)

[8] = molecular target: T7, Arabidopsis thaliana cystinosin (Arabidopsis thaliana, UniProt P57758); assay: crystal structure; apo cystinosin with Nb1 and Nb4, lipidic cubic phase, 2.33 Å, PDB 7ZKZ; conditions: both partners purified
T7 construct: cystinosin from Arabidopsis thaliana, Uniprot P57758; codon-optimised synthetic gene in pDDGFP-Leu2d; also called plant cystinosin; the transporter; source: Saccharomyces cerevisiae BJ5460, purified in DDM (Ni-NTA, TEV cleavage, reverse IMAC, Superdex 200)

[9] = molecular target: T7, Arabidopsis thaliana cystinosin; assay: crystal structure; apo cystinosin with Syb39 and Nb4, lipidic cubic phase (monoolein), 20 °C, 2.65 Å, PDB 7ZK1; conditions: both partners purified
[10] = substrate: N[C@@H](CSSC[C@H](N)C(=O)O)C(=O)O; assay: two-electrode voltage clamp in Xenopus laevis oocytes; assay type: cell-based, Homo sapiens; conditions: pH 5, -40 mV, ND-96, proton-coupled transport
[11] = substrate: N[C@@H](CSSC[C@H](N)C(=O)O)C(=O)O; assay: pyranine proton-flux transport assay in proteoliposomes; assay type: biochemical, Arabidopsis thaliana; conditions: pH 7.2 both sides, 25 °C, valinomycin / K+ gradient

Molecule: human cystinosin (WT) (Homo sapiens; DEL362-367)
Km [2]: 117 ± 2.4 µM

B4: human cystinosin Δ2-115 variant (ΔN) (Homo sapiens; DEL2-115) (protein)
chain: MLVIRSSAISIINQVIGWIYFVAWSISFYPQVIMNWRRKSVIGLSFDFVALNLTGFVAYSVFNIGLLWVPYIKEQFLLKYPNGVNPVNSNDVFFSLHAVVLTLIIIVQCCLYERGGQRVSWPAIGFLVLAWLFAFVTMIVAAVGVTTWLQFLFCFSYIKLAVTLVKYFPQAYMNFYYKSTEGWSIGNVLLDFTGGSFSLLQMFLQSYNNDQWTLIFGDPTKFGLGVFSIVFDVVFFIQHFCLYRKRP
notes: no GFP; Xenopus laevis oocytes
Km [10]: 117 ± 28.9 µM

B5: Arabidopsis thaliana cystinosin (plant cystinosin) (Arabidopsis thaliana) (protein)
chain: T1 sequence (P57758 1-270)
notes: codon-optimised gene expressed in Saccharomyces cerevisiae BJ5460 as cleavable C-terminal GFP-His fusion; tag cut with TEV protease; DDM-purified; reconstituted in POPE:POPG liposomes for transport
Km ([11]; proton-coupled symport): 19 ± 2.9 µM

B6: Arabidopsis thaliana cystinosin (plant cystinosin) (Arabidopsis thaliana; Y167F) (protein)
chain: T1 sequence (P57758 1-270) with Y167F
notes: as for B5
Km [11]: 73.3 ± 12.8 µM

Continued, in another order:

transport, % of WT levels at 500 μM [1]: ~ 80%
Molecule: N[C@@H](CSS(=O)(=O)C[C@H](N)C(=O)O)C(=O)O [L-cystine-S,S-dioxide]

% loss of binding relative to WT [5]: ~ 50% | % loss of binding relative to WT [6]: ~ 50%
Molecule: N[C@@H](CSSC[C@H](N)C(=O)O)C(=O)O [L-cystine]
X-ray crystal structure, 3.37 Å [3]: we determined the structure of the ligand bound state in complex with Syb39 | nanoDSF tryptophan fluorescence quench, DDM-purified protein [4]: it still retains WT levels of L-cystine binding

Kd [7]: 90 nM | binding result [8]: binds
B1: Nb4 (VHH)
VHH: QVQLVESGGGLVQAGGSLRLSCAASGRTITPISTYVMGWFRQDPGKEREFVASISWNGANTYYADSVKGRFTISRDNAKNTVYLQMNSLKPEDTAVYYCAADPESHVRLRLGVGAYWGRGTQVTVSS
notes: llama nanobody; also called llama derived nanobody (Nb4)

Kd [7]: 189 nM | binding result [8]: binds
B2: Nb1 (VHH)
VHH: QVQLVESGGGSAQPGGSLRLSCAVSGSVSELNTMGWFRQAPGKQRELVARITATSDATNYADSVKGRFTISRDNGWNTVYLQSNSLKPEDSAVYYCNVEGAPSWFSGIRSYWGQGTQVTVSS
notes: llama nanobody

Kd [7]: 760 nM | binding result [9]: binds
B3: sybody 39 (VHH)
VHH: QVQLVESGGGLVQAGGSLRLSCAASGFPVYRNRMHWYRQAPGKEREWVAAIESAGQETHYADSVKGRFTISRDNAKNTVYLQMNSLKPEDTAVYYCNVKDEGWYWQTYDYWGQGTQVTVSA
notes: synthetic nanobody selected from the loop library; also called Syb39
